Test results from patent publication US20240182536A1 (MURAL ONCOLOGY, published 2024).
Positions count from the first letter of the chain named. Numbers in names are those of the source.

B1: IL-18 variant G3H, N91V, K53S (ligand)
chain: YFHKLESKLSVIRNLNDQVLFIDQGNRPLFEDMTDSDMRDNAPRTIFIISMYSDSQPRGMAVTISVKSEKISTLSSENKIISFKEMNPPDVIKDTKSDIIFFQRSVPGHDNKMQFESSSYEGYFLASEKERDLFKLILKKEDELGDRSIMFTVQNED
notes: also called G3H/K53S/N91V
B2: IL-18 variant G3N, E6Y, K53Q, D54W, S55R, N91T, R104P (ligand)
chain: B1 chain with H3N, E6Y, S53Q, D54W, S55R, V91T, R104P
B3: IL-18 variant K53S, S55Y (ligand)
chain: B1 chain with H3G, S55Y, V91N
B4: IL-18 variant K53S, S55K (ligand)
chain: B1 chain with H3G, S55K, V91N
B5: IL-18 variant K53T, S55A (ligand)
chain: B1 chain with H3G, S53T, S55A, V91N
B6: IL-18 variant K53T, S55P (ligand)
chain: B1 chain with H3G, S53T, S55P, V91N
B7: IL-18 variant K53S, S55G (ligand)
chain: B1 chain with H3G, S55G, V91N

Legend:
[1] = target: T1, IL-18 receptor (IL-18Rα and IL-18Rβ) (UniProt Q13478 19-541; O95256 20-599, limits assumed); test: cell-based or functional assay
T1 sequence (looked up) 1: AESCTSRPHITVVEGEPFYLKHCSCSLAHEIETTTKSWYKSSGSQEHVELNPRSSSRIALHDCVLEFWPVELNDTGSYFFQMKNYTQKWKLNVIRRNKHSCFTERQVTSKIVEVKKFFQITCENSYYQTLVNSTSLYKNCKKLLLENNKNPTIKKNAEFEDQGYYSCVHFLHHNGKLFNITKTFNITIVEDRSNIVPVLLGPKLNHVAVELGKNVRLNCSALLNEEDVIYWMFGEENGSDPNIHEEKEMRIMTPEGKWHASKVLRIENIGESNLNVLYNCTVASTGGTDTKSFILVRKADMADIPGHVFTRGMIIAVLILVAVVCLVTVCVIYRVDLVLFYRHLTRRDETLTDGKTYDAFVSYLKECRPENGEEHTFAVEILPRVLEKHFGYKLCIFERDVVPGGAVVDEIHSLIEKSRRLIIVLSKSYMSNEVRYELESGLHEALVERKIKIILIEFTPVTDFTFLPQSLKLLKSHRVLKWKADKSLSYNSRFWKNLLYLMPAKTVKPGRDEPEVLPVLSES
T1 sequence (looked up) 2: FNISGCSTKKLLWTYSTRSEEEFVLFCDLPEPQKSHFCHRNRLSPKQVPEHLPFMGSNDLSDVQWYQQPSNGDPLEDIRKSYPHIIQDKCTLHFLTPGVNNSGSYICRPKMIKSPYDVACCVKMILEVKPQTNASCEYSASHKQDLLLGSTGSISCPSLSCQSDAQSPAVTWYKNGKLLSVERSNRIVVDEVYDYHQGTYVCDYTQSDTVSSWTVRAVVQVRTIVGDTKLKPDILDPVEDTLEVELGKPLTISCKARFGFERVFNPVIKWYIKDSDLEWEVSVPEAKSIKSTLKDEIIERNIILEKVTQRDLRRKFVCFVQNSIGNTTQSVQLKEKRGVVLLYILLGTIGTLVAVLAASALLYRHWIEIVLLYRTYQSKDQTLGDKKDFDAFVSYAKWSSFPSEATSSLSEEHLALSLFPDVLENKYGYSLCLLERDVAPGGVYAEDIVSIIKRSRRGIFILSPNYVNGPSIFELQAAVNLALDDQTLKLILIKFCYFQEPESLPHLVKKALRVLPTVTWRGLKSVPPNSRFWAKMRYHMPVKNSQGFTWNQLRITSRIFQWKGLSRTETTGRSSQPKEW

[2] = target: T2, human IL-18 binding protein (IL-18BP) (human, UniProt O95998 31-194); test: cell-based or functional assay
T2 sequence (looked up): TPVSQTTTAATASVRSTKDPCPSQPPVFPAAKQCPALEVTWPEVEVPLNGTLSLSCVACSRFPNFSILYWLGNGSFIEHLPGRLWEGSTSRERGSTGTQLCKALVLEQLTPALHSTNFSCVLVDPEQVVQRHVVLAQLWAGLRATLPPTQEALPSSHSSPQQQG

[3] = target: T3, IL-18 receptors on HEK-Blue IL-18 reporter cells (InvivoGen) (UniProt Q13478 19-541; O95256 20-599); test: cell-based or functional assay
T3 sequence (looked up) 1: T1 sequence (looked up) 1
T3 sequence (looked up) 2: T1 sequence (looked up) 2

[4] = target: T2, human IL-18 binding protein (IL-18BP); test: Octet BLI
Description: Octet 96red instrument was used to determine affinities of IL18 proteins to BP or receptors. 5-10 ug/ml analyte proteins were used for loading on Sartorius tips (AHC or SA). […] 120-180 s loading, 200 s association and 800 s dissociation were used for kinetics. 3-7 data points were used to calculate affinities.
Select G3/K53-substitution containing IL-18 variants and select G3/K53/N91-substitution containing TL-18 variants were tested for activity in the HEK-blue activity assay and for binding affinity to IL-18BP. As shown in the data of Table 15 and Table 16 below, each variant had similar or better activity than WT IL-18, and retained substantial activity in the presence of IL-18BP.

[5] = target: T4, interleukin 18 binding protein (IL-18BP) (UniProt O95998 31-194); test: cell-based or functional assay
T4 sequence (looked up): T2 sequence (looked up)

[6] = target: T5, interleukin 18 binding protein (IL-18BP) (UniProt O95998 31-194); test: cell-based or functional assay; remark: listed apart in the source
T5 sequence (looked up): T2 sequence (looked up)

[7] = target: T6, IL-18 receptors on HEK-Blue IL-18 reporter cells (UniProt Q13478 19-541; O95256 20-599, limits assumed); test: cell-based or functional assay
T6 sequence (looked up) 1: T1 sequence (looked up) 1
T6 sequence (looked up) 2: T1 sequence (looked up) 2

| Binder | HEK-blue EC50 (pM) + 300 nM BP [6] [pM] | Ratio [6] | HEK-blue EC50 (pM) - BP [7] [pM] | further results |
| --- | --- | --- | --- | --- |
| B1 |  |  |  | EC50 pM, IFN gamma expression in PBMCs [1]: 222 pM; HEK-Blue Ec50 (pM), +IL-18BP (50 nM) [2]: 2.51 pM; HEK-Blue Ec50 (pM), -IL-18BP [3]: 0.94 pM; Kd [4]: 8.6 nM; koff [4]: 0.0031 s⁻¹; kon [4]: 359000 M⁻¹ s⁻¹ |
| B2 |  |  |  | Ratio (-BP/+BP), DF-1000005 [5]: 1.02; Ratio (-BP/+BP), DF-5000006 [5]: 0.93; Ratio (-BP/+BP), DF-25000007 [5]: 1.03 |
| B3 | 136 | 1.9 | 70 |  |
| B4 | 18.1 | 0.8 | 21.8 |  |
| B5 | 140 | 2.1 | 67.4 |  |
| B6 | 133 | 1.3 | 103 |  |
| B7 | 103 | 3.1 | 33.4 |  |
